In IntAct's records for PubMed 23104057:

B1: Plexin-A2 (Mus musculus), P70207 (parent)
chain: MEQRRFYLRAMQADNLSVVLLSVAWLLLARGTTGMPQYSTFHSENRDWTFNHLTVHRRTGAVYVGAINRVYKLTGNLTIQVAHKTGPEEDNKACYPPLIVQPCSEVLTLTNNVNKLLIIDYSENRLLACGSLYQGVCKLLRLDDLFILVEPSHKKEHYLSSVNKTGTMYGVIVRSEGEDGKLFIGTAVDGKQDYFPTLSSRKLPRDPESSAMLDYELHSDFVSSLIKIPSDTLALVSHFDIFYIYGFASGGFVYFLTVQPETPDGMAINSAGDLFYTSRIVRLCKDDPKFHSYVSLPFGCTRAGVEYRLLQAAYLAKPGEALAQAFNISSDEDVLFAIFSKGQKQYHHPPDDSALCAFPIRAINLQIKERLQSCYHGEGNLELNWLLGKDVQCTKAPVPIDDNFCGLDINQPLGGSTPVEGLTLYTTSRDRLTSVASYVYNGYSVVFVGTKSGKLKKIRADGPPHGGVQYEMVSVFKDGSPILRDMAFSINQLYLYVMSERQVTRVPVESCEQYTTCGECLSSGDPHCGWCALHNMCSRRDKCQRAWEANRFAASISQCMSLEVHPNSISVSDHSRLLSLVVNDAPNLSEGIACAFGNLTEVEGQVSGSQVICISPGPKDVPVIPLDQDWFGLELQLRSKETGKIFVSTEFKFYNCSAHQLCLSCVNSAFRCHWCKYRNLCTHDPTTCSFQEGRINVSEDCPQLVPTEEILIPVGEVKPITLKARNLPQPQSGQRGYECVLSIQGAVHRVPALRFNSSSVQCQNSSYQYDGMDISNLAVDFAVVWNGNFIIDNPQDLKVHLYKCAAQRESCGLCLKADHKFECGWCSGERRCTLHQHCPSTSSPWLDWSSHNVKCSNPQITEILTVSGPPEGGTRVTIHGVNLGLDFSEIAHHVQVAGVPCTPIPGEYIIAEQIVCEMGHAVIGTTSGPVRLCIGECKPEFMTKSHQQYTFVNPSVLSLSPIRGPESGGTMVTITGHYLGAGSSVAVYLGNQTCEFYGRSMNEIVCVSPPSSNGLGPVPVSVSVDRARVDSSLQFEYIDDPRVQRIEPEWSITSGHTPLTITGFNLDVIQEPRVRVKFNGKESVNVCTVVNTTTLTCLAPSLTSDYRPGLDTVERPDEFGFLFNNVQSLLIYNDTKFIYYPNPTFELLSPTGILDQKPGSPIILKGKNLCPPASGGAKLNYTVMIGETPCTVTVSETQLLCEPPNLTGQHKVMVHVGGMVFSPGSVSVISDSLLTLPAIISIAAGGSLLLIIVIIVLIAYKRKSRENDLTLKRLQMQMDNLESRVALECKEAFAELQTDINELTSDLDRSGIPYLDYRTYAMRVLFPGIEDHPVLRELEVQGNGQQHVEKALKLFAQLINNKVFLLTFIRTLELQRSFSMRDRGNVASLIMTGLQGRLEYATDVLKQLLSDLIDKNLENKNHPKLLLRRTESVAEKMLTNWFAFLLHKFLKECAGEPLFMLYCAIKQQMEKGPIDAITGEARYSLSEDKLIRQQIEYKTLILNCVNPDNENSPEIPVKVLNCDTITQVKEKILDAVYKNVPYSQRPRAVDMDLEWRQGRIARVVLQDEDITTKIEGDWKRLNTLMHYQVSDRSVVALVPKQTSSYNIPASASISRTSISRYDSSFRYTGSPDSLRSRVPMITPDLESGVKVWHLVKNHDHGDQKEGDRGSKMVSEIYLTRLLATKGTLQKFVDDLFETLFSTVHRGSALPLAIKYMFDFLDEQADRHSIHDTDVRHTWKSNCLPLRFWVNVIKNPQFVFDIHKGSITDACLSVVAQTFMDSCSTSEHRLGKDSPSNKLLYAKDIPSYKNWVERYYADIAKLPAISDQDMNAYLAEQSRLHATEFNMLSALNEIYSYVSKYSEELIGALEQDEQARRQRLAYKVEHLINAMSIES
B2: Neuropilin-1 (Mus musculus), P97333 (parent)
chain: MERGLPLLCATLALALALAGAFRSDKCGGTIKIENPGYLTSPGYPHSYHPSEKCEWLIQAPEPYQRIMINFNPHFDLEDRDCKYDYVEVIDGENEGGRLWGKFCGKIAPSPVVSSGPFLFIKFVSDYETHGAGFSIRYEIFKRGPECSQNYTAPTGVIKSPGFPEKYPNSLECTYIIFAPKMSEIILEFESFDLEQDSNPPGGMFCRYDRLEIWDGFPEVGPHIGRYCGQKTPGRIRSSSGVLSMVFYTDSAIAKEGFSANYSVLQSSISEDFKCMEALGMESGEIHSDQITASSQYGTNWSVERSRLNYPENGWTPGEDSYKEWIQVDLGLLRFVTAVGTQGAISKETKKKYYVKTYRVDISSNGEDWISLKEGNKAIIFQGNTNPTDVVLGVFSKPLITRFVRIKPVSWETGISMRFEVYGCKITDYPCSGMLGMVSGLISDSQITASNQADRNWMPENIRLVTSRTGWALPPSPHPYTNEWLQVDLGDEKIVRGVIIQGGKHRENKVFMRKFKIAYSNNGSDWKTIMDDSKRKAKSFEGNNNYDTPELRTFSPLSTRFIRIYPERATHSGLGLRMELLGCEVEAPTAGPTTPNGNPVDECDDDQANCHSGTGDDFQLTGGTTVLATEKPTIIDSTIQSEFPTYGFNCEFGWGSHKTFCHWEHDSHAQLRWSVLTSKTGPIQDHTGDGNFIYSQADENQKGKVARLVSPVVYSQSSAHCMTFWYHMSGSHVGTLRVKLRYQKPEEYDQLVWMVVGHQGDHWKEGRVLLHKSLKLYQVIFEGEIGKGNLGGIAVDDISINNHISQEDCAKPTDLDKKNTEIKIDETGSTPGYEGEGEGDKNISRKPGNVLKTLDPILITIIAMSALGVLLGAVCGVVLYCACWHNGMSERNLSALENYNFELVDGVKLKKDKLNPQSNYSEA
B3: Semaphorin-3A (Mus musculus), O08665 (parent)
chain: MGWFTGIACLFWGVLLTARANYANGKNNVPRLKLSYKEMLESNNVITFNGLANSSSYHTFLLDEERSRLYVGAKDHIFSFNLVNIKDFQKIVWPVSYTRRDECKWAGKDILKECANFIKVLEAYNQTHLYACGTGAFHPICTYIEVGHHPEDNIFKLQDSHFENGRGKSPYDPKLLTASLLIDGELYSGTAADFMGRDFAIFRTLGHHHPIRTEQHDSRWLNDPRFISAHLIPESDNPEDDKVYFFFRENAIDGEHSGKATHARIGQICKNDFGGHRSLVNKWTTFLKARLICSVPGPNGIDTHFDELQDVFLMNSKDPKNPIVYGVFTTSSNIFKGSAVCMYSMSDVRRVFLGPYAHRDGPNYQWVPYQGRVPYPRPGTCPSKTFGGFDSTKDLPDDVITFARSHPAMYNPVFPINNRPIMIKTDVNYQFTQIVVDRVDAEDGQYDVMFIGTDVGTVLKVVSVPKETWHDLEEILLEEMTVFREPTTISAMELSTKQQQLYIGSTAGVAQLPLHRCDIYGKACAECCLARDPYCAWDGSSCSRYFPTAKRRTRRQDIRNGDPLTHCSDLQHHDNHHGPSLEERIIYGVENSSTFLECSPKSQRALVYWQFQRRNEDRKEEIRMGDHIIRTEQGLLLRSLQKKDSGNYLCHAVEHGFMQTLLKVTLEVIDTEHLEELLHKDDDGDGSKIKEMSSSMTPSQKVWYRDFMQLINHPNLNTMDEFCEQVWKRDRKQRRQRPGHSQGSSNKWKHMQESKKGRNRRTHEFERAPRSV
B4: Neuropilin-1 (Mus musculus), P97333 (parent)
chain: B2 chain
partner: B3 chain

Variants of: B1
Conditions: with nrp1_mouse Nrp1, P97333

Variant | effect of a mutation on the interaction
F275N | decreasing interaction strength

Variants of: B2
Conditions: with plxa2_mouse Plxna2, P70207

Variant | effect of a mutation on the interaction
P73A;H74S | disrupting interaction strength

Variants of: B3
Conditions: with nrp1_mouse Nrp1, P97333

Variant | effect of a mutation on the interaction
L353N;P355S | decreasing interaction strength

Variants of: B4
Conditions: with sem3a_mouse Sema3a

Variant | effect of a mutation on the interaction
P73A;H74S | disrupting interaction strength
